Source: patent US20260258397A1, “REAGENTS AND SYSTEMS FOR […]” (priority 2023, published 2026)
Numbering of substitutions follows the chain as printed.

Molecular target: ΔN-HAB1 (HAB1 Δ1-178), recombinant (Arabidopsis) (UniProt Q9CAJ0)
Experiment: cell-based or functional assay

Sequence of ΔN-HAB1 (HAB1 Δ1-178), recombinant (Arabidopsis) (Q9CAJ0 179-511, stated change not applied): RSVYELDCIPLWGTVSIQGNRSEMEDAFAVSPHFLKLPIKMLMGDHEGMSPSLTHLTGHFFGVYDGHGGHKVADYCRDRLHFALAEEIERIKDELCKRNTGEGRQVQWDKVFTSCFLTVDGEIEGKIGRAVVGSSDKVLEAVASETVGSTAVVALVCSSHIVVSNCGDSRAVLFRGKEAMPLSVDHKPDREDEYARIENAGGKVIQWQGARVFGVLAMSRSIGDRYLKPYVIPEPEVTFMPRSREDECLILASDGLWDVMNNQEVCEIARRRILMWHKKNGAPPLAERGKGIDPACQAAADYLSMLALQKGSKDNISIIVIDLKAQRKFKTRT

B1: 6xHis-PYR1^WIN, recombinant (designed binder, not shown: small tags and cut ends)
chain: MPSELTPEERSELKNSIAEFHTYQLDPGSCSSLHAQRIHAPPELVWSIVRRFDKPQTYQHFIKSCSVEQNFEMRVGCTRDVIVISGLPANTSTERLDILDDERRVTGFSIIGGEHRLTNYKSVTTVHRFEKENRIWTVVLESYVVDMPEGNSEDDTRMAIDTVVKLNLQKLATVAEAMARNSGDGSGSQVT
  EC50 for HAB1 inhibition (in vitro phosphatase activity, fluorogenic substrate; the ligand WIN 55,212-2 is titrated, 50 nM receptor, 25 nM ΔN-HAB1): 0.072 µM

B2: 6xHis-PYR1^4F, recombinant (designed binder, not shown: small tags and cut ends)
chain: B1 chain with Q59K, H115Q, Y120G, A159V, I160G
  EC50 for HAB1 inhibition (in vitro phosphatase activity, fluorogenic substrate; the ligand 4F-MDMB-BUTINACA is titrated, 25 nM receptor, 25 nM ΔN-HAB1): 0.102 µM

B3: PYR1^PIRI, recombinant (designed binder)
chain: B1 chain with Q59R, S92M, N119S, S122Q, E130G, A159T, I160T, V174A
  EC50 of receptor-mediated inhibition of HAB1 phosphatase activity in vitro (ligand pirimiphos-methyl titrated): 0.058 µM

B4: PYR1^DIAZI, recombinant (designed binder)
chain: B1 chain with E8G, Q59K, V81Y, L87M, F108Y, M158V, A159G, I160V
  EC50 of receptor-mediated inhibition of HAB1 phosphatase activity in vitro (ligand diazinon titrated): 0.036 µM
